A protein production outcome set (Wang et al. 2014)

Assay: label from the status in PepcDB records
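Further: failed if final PepcDB status was selected cloned or expressed and not failed if soluble or beyond.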

**Q.** Which protein production does the source give for “MTADGRGRIDAAFRGRLGRFVLDASLSVPATGVTAIFGPSGCGKTTIARCIAGLQRLSDGFCAIDGEIWQDGMAFRPAHRRPVGYVFQEPSLFPHLSVRGNLLYGAPKAAATSIGFDEVVELLGLTALLGRSPHRLSGGERQRVAIGRALLSQPRLLLMDEPLAALDRTTKNEILPFLERLHERLSLPVLYISHDMAEIERFADYLVLMERGRVVGAGPLHILQSDPALPLAYSRDAAVSIDGLVEAYDERYGLLTLAVNGGLLHVPSHRIAVGARQRLRIAASDVSIVRARPSESSILNILPARIVTQSPPGAGEVTIVLGLDSDGSGAPILSRISSRSRDLLGLSDGMAVFAQVKGVSLVRASGCAIGNMGPTAPGQLDHCSTQDTGVRSEAGTTAMPIDFAEIDPNRVAAILYRPQDDLDTLLADFAQDLVRAGERIGGIVQRNIKDGSGCQVGMQAIDLMTGREISICQPLGSGAMACKLDAAGLADASVAVASAIAQDVDLIVINKFSKQEAAGRGLRDELAGAIAAGIPVLTAVPEKCFEAWISFTGGIGTTLLCERQVIEAWWRDTSSRMKRMREDHDAVVAQCIEISGALPLVQRVVARQLVVTHDLPLDPERAEAEVVVRGVVERTNVEVLDGAADEADEAPDAGFPVGPERIERLPDIGPVPRRHEALQVEREVLSPDACLQRSAGERVDVFKEGKTKVGTVLVDRGDAELVEGPIVLELHEGAPVLVEMNVGVDLQTLYEIAVRGRVAGAERRCAIGLEAFAQRRPQRDVAFRIGGPKRDVFEPVKRFGTQPGIGKDRPVLCPAVRLDRRPLGDRSVLGPREPDAGAKGRKRQNDPEVAHIAPCQHRRTSPHLASARDALFGPREWISATYPPGNMTNAADRLLDV” here?
**A.** Its protein production is “failed”.

**Q.** For “MTADRPLLGIFLMLGFCVLAPMGDALAKLLGGTMPTMQLLLVRFAIQAVILIPLVQATGRPWQLRGRLLRLTALRTLLHIVGIWAMFTALRYLPLADAIAIAFVMPFIMLLLGKYVLGEEVGPRRLGACIVGFAGTLLVIQPSFAEVGLPALLPLLVAVVFALFMLVTRQLAKDTDPIALQAVSGVMACVALTPVLLIGHAAGVEALTLVTASGTTLWLLLAIGVLGTAAHLLMTWSLRYAPSATLAPMQYLEIPVATAIGWLIFHDLPNGLAALGILITMAAGLYVILREQATARSAATETSG”, which protein production is on record?
**A.** Its protein production is “failed”.

**Q.** With “MTADSQTCFCVCTMAVTVTNNQAIDLSRAKAQGRAMAKPLTSHRPILAVSLKLGALVLFTSMSALIKVLSADFPAGEMVFFRSLFAIPVIILWLLARGELRQGLIVKKPMGHFWRGVLGTGAMGLTFTGLGLLPLPEVTAIGYATPIFTLILAALMLGETIRLVRIGAVALGLLGVLIMLWPRLGTGASLDQAATIGALCVLAATVARAFVQIHIRQLVQVDHAAAIVFYFSLTATLLSGLTAFFGWVTPTPEQAAILILTGLVGGVAQILVTSSYRFGQASMLAPYDYASMLFAIIIGYIWFDEWPTLVMLAGAMLVIAGNVVVIWRERQLGLERGKARSVTDPKG” as the sequence, how does the protein production read?
**A.** The protein production was “failed”.

**Q.** Which protein production does the source give for “MTAEPAATSAPLSGPVAVIGCGWVGWPLARALLVAGAEVRGSATTPEKVAALRAEGVAATRLRLTPDTSPESDELTELLRGAHRLVLTVPPGRGPERERYAEYLSPVAQAAALHGVRQLIFTSSTGVYPNDPHVMTESDALATPDSPSPLLRAEAALAAAGVPLTVLRFAGLYGPGRPPGRFLAGRTEVGEGSAPVNLVHLDDCVGAVQHMLGGDFGGQTFNVCAAAHPLRRDFYPAAARALGLEAPSFAPHEGGGKIIGSEAFRAATGYHFRHDDPLSDLHTLGNGQGA” here?
**A.** Its protein production is “failed”.

**Q.** With “MTAEQLIEKYKNPAIIGLGVIVALIAAFVFYKYNQSENNTVAQEEMYKAVFYFEQDSLELALKGDEAKGIRGLQEVADEYSGTKAGKLAAFYTGIIYLKQAKFQESIDYLEKFSSNEGILQARSWAAMGDAYSELNDLENAIKYYKKAADHKGNEQITPTYLMKLGLAYELNNNWKDASDAYDKIITDYPKSQDVADAKKYKAKAQAALSASE” as the sequence, how does the protein production read?
**A.** Its protein production is “failed”.

**Q.** For “MTAETSQTLDRGLRVLKLLADTDHGLTVTELSHKLGVNRTVVYRLLATLEQHALVRRDLGGRARVGLGVLGLGRQVHPLVREAAMPALRALAEDIGATAHLTLVDGAEALAVAVVEPTWTDYHVAYRAGFRHPLERGAAGKAILAARQPSQPTGGEAVDDPGYTLTHGELEAGACGAAAPLLGVTGVEGSVGVVMLADVVPERVGERVKHAAREVAEALR”, which protein production is on record?
**A.** The protein production was “failed”.

**Q.** For “MTAILLHNVAKSYRSYDHPWETLWEVFTKTRRHREWTALHPLSLEIAHGEVVGIVGTNGAGKSTLLKLIAGTLTPSAGDIRVNGHVAALLELGAGFHPDMTGRENVYLGASVMGLSSERVDRLYDGIVEFAGLGEFMDQPVKTYSSGMYMRLAFAVATAADPDVLILDEALSVGDGAFARKSFERIIGYKDAGKTILFCSHSLYQVEAICSRVLWLDHGRLVMDGEPARVVSAYAEFLGGGGEGCGTPDQPAPAAVAGSGVGRLTKVEVEADGVEGRKLTVRSGQTDLTVAVGFASDPALPPPSVGLTITGSNGWAVTSASTSNDGLTISRRPDGSGEVELSFPRFPLLKGAYWVNVFLLCEQGIHLYDRIEHAAELEVVQDGLEQGVVSLPRRWSVNGAPASAVSPTVPTVAAWLEHHHHHH”, which protein production is on record?
**A.** Its protein production is “failed”.

**Q.** Which protein production does the source give for “MTAIYIGVMTGTSMDGVDFVAASFDPLHIHATLTLPFEPALRDELMALTLPGDNEIDRMGKADVGLAKLIGHGINMLIEQNHLDRHVIKAIGSHGQTIRHRPEHGFTLQIGDPHIITELTGIPVISDFRRRDMAAGGQGAPLVPAFHQAIFQHSTIHRVILNLGGIANVSLLPAGNPDGVYGFDTGPANILMDAWCERYTGHPYDENGNWAAYGQPIRALLERLQAHEFFSKKPPKSTGREDFNLDWLDDQLADWRNDELEYDELEDTPENVQATLLKLTTRAIKKAIYRSELDTGEVYVCGGGAYNSHLLEQLRWRLRKHHWSVQSTSVLGLSPTWVEATAFAWLAMRFMQQQSANLPSVTGAAGFRILGTITSV” here?
**A.** The protein production was “failed”.

**Q.** Which protein production does the source give for “MTALFFENFAPGHFGRYGPRRVTREEIIAFASEYDPQPMHLDDHAANASMLKGMSGSGWHLSSLMMRMMYDGFIKDTASLGSPGVDEMRWMSPLRPGDDLLLDVEVIEARVSKSRPETGIVTFKCYVRNGHGQMLSEMVSPIIVKRRDAD” here?
**A.** The protein production was “failed”.

**Q.** Which protein production does the source give for “MTALKPALPDYLGNIRIILTRTSHPANIGSAARAMKTMGLHRLTIVTPNLMATPMTENPPVFNPDDVQSFALPEESFILASGAADVLHNAEIVATLDEALADTTIACALTSRRREITAPLQTPRDLVPELLQAANRGEKVALVFGNETFGLSIEEVRACNRLMTINGNPDYFSLNLAQAVQVVCYEIFSQTDSPMTHLQQEDHAATHEQIKGMLAHMESVMDDIGFFNRRNGERLMRRMQSLFGRANTQTEDIDILRGFFNTVSHRIHKKD” here?
**A.** The protein production was “failed”.

**Q.** Which protein production does the source give for “MTAPAICNTTETVHGIATSLGAVARQASLPRIVGTVVGITVLVVVALLVPVPTAVELRDWAKSLGAWFPLAFLLVHTVVTVPPFPRTAFTLAAGLLFGSVVGVFIAVVGSTASAVIAMLLVRATGWQLNSLVRRRAINRLDERLRERGWLAILSLRLIPVVPFAAINYAAGASGVRILSFAWATLAGLLPGTAAVVILGDAFAGSGSPLLILVSVCTGALGLTGLVYEIRNYRRQHRRMPGYDDPVREPALI” here?
**A.** Its protein production is “failed”.

**Q.** For “MTAPIIITGVGKRIGYALAKHLLAQGHKVIGTYRSHYPSIDELQSLGATLIQCDFYDNAQVQNLIEQLSQYPKFRAIIHNASDWLADNSPEFAAHEVMQRMIQVHVNVPYQMNLALASKLQAGAEGEIGASDIIHITDYVAEKGSAKHIAYAASKAALDNLTLSFAAKLAPEVKVNAIAPAMILFNPSDDEAYRQKTLAKAILPKEAGNHEIIELMEYLLNSRYVTGRSHHVDGGRHLR”, which protein production is on record?
**A.** The protein production was “not failed”.

**Q.** With “MTAPKITQKFNEVETKTTEILNKVLTDDRYFTVTSSFKQDATLGIEYYVTKVTPKTTEAKKSMVQKTFAYDFEKSIDPTSSYFGTTNRETVLSMAKRKRSVVAINASGWRSNGEVMGLQIKDGVLYKDYDAAGYTGAEACVFFDDGTMKVYGNREVDADILISKGARNSFAFGIWLVKDSKPRTAQMTTWADLNVKHPRQAIGQRSDGTLVIITVDGRSLRSSGITAYDMPSLFLSEGCINAFLLDGGGSSQTAVEGKYINNISDGIERAVVDTLTISYPDDDTDSRFFEVQEGRGLATSLNRRVEFIESKPTWNVLDLGFSPDGLIDNTAKFKKALSDLSEKGGGKLHFPKGTYLIGKQNTTSASEKIELPSNVSIVGERRSYTKLLRNPNHSLDELLRITDHNYIEGIEIDGNSSVNKSSCRLIAGGNIKSFKMKDCSLVNATDRGVSIHGIGKSITIEGMYISNIANECINVAEGEIIKLIDSEITFSGTALWVGNAANIFTKNNLAKSLKTFVRYKNSQNAICSGNIITNNIDRAIWGSVREAVFSDNVFKQCHSDYHLYFIQEDTGTNDLIVTGNSVYSDVEGTAFIRTPSDIDRRRVSGNVGNIPSLNLDLEHHHHHH” as the sequence, how does the protein production read?
**A.** The protein production was “not failed”.

**Q.** Which protein production does the source give for “MTAREIAEHPFGTPTFTGRSWPLADVRLLAPILASKVVCVGKNYADHIAEMGGRPPADPVIFLKPNTAIIGPNTPIRLPANASPVHFEGELAIVIGRACKDVPAAQAVDNILGYTIGNDVSARDQQQSDGQWTRAKGHDTFCPVGPWIVTDLAPFDPADLELRTVVNGDVKQHARTSLMIHDIGAIVEWISAIMTLLPGDLILTGTPAGVGPIEDGDTVSITIEGIGTLTNPVVRKGKP” here?
**A.** Its protein production is “failed”.

**Q.** With “MTATGLERSTANAQSLRNDSHQRSFHRFDGLTASSDITLEAVSSVDAIAAADWDACARSGTIVPHPDGAGGACTTATAAYNPFLSHAFFTALEQSGSASPRTGWGPRHLIAKHEGAIVGIVPCYLKSHSQGEYVFDRGWADAYERAGGNYYPKLQVSVPFTPATGPRLLIRDRIDSARVAGALANGLMALCDLSKASSVHVTFARESEWRFLAECGFLQRTDQQFHWHNAGYSSFDDFLATMNSRHRKGIKRERRDAVASGITIHHLTGADITEDAWDAFFEFYIETGSRKWGRPYLTREFYSLIGQSMSEDVLLVMAKRNGRWIAGAINFIGGDTLFGRHWGAIEHHPFLHFEVCYYQAIDFAITRGLKVVEAGAQGEHKIARGYLPQTTYSAHFIADPALRRAIADYLKRERMYVDEMGRELTEAGPFKKGNIADPA” as the sequence, how does the protein production read?
**A.** Its protein production is “failed”.

**Q.** Which protein production does the source give for “MTAVSSVYAQRLLITLFLVSFGIYLFVATVTYTPFDPGWMHISSDTQNVSNASGVAGAWIADLMFGFLGWASLLIPIFLFIEAIQIWWPRSFLTRPFRYAAQFFIILATSTLLYLYWNVPADTLENASGGIIGFEVGQSLSGLLTIYGATLFLVAFWVLLITLAFGIQWNRTWATLKATPAYLQDLFYKNVSPNESDYDLTEQPKKTASTSKTTVASEQNHQDQVHDQHLEQTTRTDQKAFDTTTKNFVSDEMVEKLFADVVAKEQYAQQQVQAVNTSIEDPAFEQTIQKAHQLEKEAKRLVPTGEVWKALQTDDSTHKQEIDALLRAADDNEPSVTPMTSDELLANLKAQQAQQNHTQPNNHTAKLNWNDDQIFDELLAAMPNSKIGSDIHTPFVEHREDTTPDHTDHLIQQVEQTLQASSNTLQPKNMTNLDEAEEQSDLLTETVEENPSTHYAGQPQNRSFTSNELTAKDQEKLSKEEFIEAWQETAGKPVEDDFDFDAPLTDASGRPMSRAMQVAQKRRDLPTLPGLELLDKVDPNKKVNFTVEQLERLSELLEIKLQEFNVKAKVVEAQPGPVVTRFELDLAPGVKASKVTNISRDLARSMSMASVRVVEVIPGKPYIGIEVPNSSREMVRLIELLETASFRDPAGLLSMAMGKDISGNPVITDLGKAPHMLVAGTTGSGKSVAVNSMILSMLLKYTPDQLRLILIDPKQLELANYNDIPHLLTPVVTDMKDAVSALNWCVNEMERRYKLMSFLKIRKLADYNRKVEEAIANGEDLIDPTWKPSDSATQERAPRLQPLPSIVIVADEFADMIMQVGKKAEEMITRLAQKSRAAGIHLLLATQRPSVDVITGLIKANIPTRVALRVNSKIDSRTILDAGGAEDLLGHGDMLFLGPGKIEPERVHGAFIGDDEVNRICDAWRERGEPNYVDEILTPFDEEPTSRGFEDGGEGASDRDMLYDQCVAFVLETRKASTSSLQRKFSLGYNRAARIIDQMEENGIVSAMGANGKREILV” here?
**A.** The protein production was “failed”.
